This note sets out measurements from US20260193375A1 (NORMUNITY, published 2026).

In experiment [1] the target is T1, human LY6E (R&D Systems) (human, UniProt Q16553 21-101, limits assumed).
T1 construct: also called hLY6E
T1 sequence (looked up): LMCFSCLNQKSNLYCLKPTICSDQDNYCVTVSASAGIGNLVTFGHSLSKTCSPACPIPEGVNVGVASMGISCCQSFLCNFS
Kind of experiment: ELISA, coated antigen, IgG1 at 10 ug/ml. For orientation: An ELISA detects its analyte on a solid surface through an enzyme-linked reagent.

The target of the next experiment is T2, rat LY6K (R&D Systems) (rat).
T2 construct: also called rLY6K
Description: ELISA, coated antigen, IgG1 at 10 ug/ml.

In experiment [2] the target is T3, cynomolgus monkey LY6K (R&D Systems) (cynomolgus monkey).
T3 construct: also called cyLY6K
Description: ELISA, coated antigen, IgG1 at 10 ug/ml.

The target of experiment [3] is T1, human LY6E (R&D Systems). Description: ELISA, antigen coated on the plate, antibody as human IgG1, anti-human F(ab)2 HRPO.
For the next experiment, the target named is T4, Ly6H.
T4 chain: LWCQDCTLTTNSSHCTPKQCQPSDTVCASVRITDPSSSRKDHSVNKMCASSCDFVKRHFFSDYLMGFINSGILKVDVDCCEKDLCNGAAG
The description is as above.

The next experiment concerns the target T5, Ly6D.
T5 chain: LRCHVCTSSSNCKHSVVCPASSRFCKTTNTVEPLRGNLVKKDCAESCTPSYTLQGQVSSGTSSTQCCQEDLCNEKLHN
Described as above.

The target of a further experiment is T6, hLY6K-his (human, UniProt Q17RY6 18-138, limits assumed).
T6 construct: not shown: his tag
T6 sequence: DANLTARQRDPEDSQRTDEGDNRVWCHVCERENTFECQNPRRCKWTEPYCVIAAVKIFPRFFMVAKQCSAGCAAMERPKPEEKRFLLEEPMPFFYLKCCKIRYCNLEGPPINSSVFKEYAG
Kind of experiment: SPR (Carterra LSA), mAb captured on anti-human IgG-Fc, antigen as analyte.

The next experiment concerns the target T7, hLY6K-mFc (human, UniProt Q17RY6 18-138).
T7 construct: not shown: mFc
T7 sequence: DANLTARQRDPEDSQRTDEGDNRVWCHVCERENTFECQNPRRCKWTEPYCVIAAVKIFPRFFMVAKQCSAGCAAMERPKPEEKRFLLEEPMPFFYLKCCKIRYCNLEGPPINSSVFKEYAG
Described as above.

The next experiment deals with T8, Human LY6K (R&D Systems) (human, UniProt Q17RY6 18-138, limits assumed).
T8 construct: Bought from R&D Systems, coated on ELISA plates; also called hLY6K
T8 sequence: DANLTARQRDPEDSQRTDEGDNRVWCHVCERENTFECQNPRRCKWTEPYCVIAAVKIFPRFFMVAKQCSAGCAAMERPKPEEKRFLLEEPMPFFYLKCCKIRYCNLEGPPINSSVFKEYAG
Kind of experiment: ELISA, coated antigen, IgG1 at 10 ug/ml.

Another experiment addresses cyLY6K-mFc (cynomolgus monkey). Description: SPR (Carterra LSA), mAb captured on anti-human IgG-Fc, antigen as analyte.

B1: anti-LY6K antibody 3743 (antibody, V domains shown)
VH: EVQLVESGGGLVHPGRSLRLSCAASGFTFDDYAMHWVRQAPGKGLEWVSGISWKSGRIDYADSVKGRFTISRDNAKNSLYLQMNSLRAEDTALYYCAKDRRELTFDIWGQGTMVTVSS
VL: DIVMTQTPLSSPVTLGQPASISCRSSQSLEHSNGNTYLSWLQQRPGQPPRLLIYKISNRFSGVPDRFSGSGAGTDFTLKISRVEAEDVGVYYCMQTTQFPLTFGGGTKVEIK
With B1, the “% of maximum of commercial anti-LY6K mAb on human LY6K” value (shortened to “% of maximum … on human LY6K”) with human LY6E (R&D Systems) [1] turned out to be 5%; with rat LY6K (R&D Systems), 2.6%; in [2], 3.5%.

B2: anti-LY6K antibody 3063 (antibody, V domains shown)
VH: EVQLVESGGGLVKPGRSLRLSCAASGFTFDDFAMHWVRQAPGKGLEWVSGLSWKGHTLGYADSVKGRFTFSRDSAKNSLYLQMNSLRAEDTALYYCAKDTRSGLDYWGQGTLVTVSS
VL: DIVMTQTPLSSPVTLGQPASISCRSSQSLEHSDGNTYLSWLQQRPGQPPRLLIYKISNRFSGVPDRFSGNGAGTDFTLKISRVEAEDVGIYYCMQATEFPFTFGGGTKVEIK
As for B2, the binding result in the experiment with human LY6E (R&D Systems) [3], with Ly6H and in the experiment with Ly6D was “no binding (tested: 10 µg/ml)” each time. The “% of maximum … on human LY6K” value was 4.2% with human LY6E (R&D Systems) [1], -0.2% with rat LY6K (R&D Systems) and 2.6% in [2].

B3: anti-LY6K antibody 3056 (antibody, V domains shown)
VH: EVQLVESGGGLVQPGRSLRLSCAASGFTYDDYAMHWVRQVPGKGLEWVSGITWKKSIIGYADSVRGRFTVSRDSAKNSLYLQMSSLRVEDTALCYCAKDSTDGLDYWGQGTLVTVSS
VL: DIVMTQTPLSSPVTLGQPASLSCRSSQSLLHSNGNTYLSWLQQRPGQPPRLLIYKISNRFSGVPDRFSGSGAGTDFTLKISRVEGEDVGVYYCMQATEFPYTFGQGTKLEIK
notes: Has values only in SPR (CHO supernatant, captured by anti-human IgG-Fc)
For B3, the figures for the Kd with hLY6K-his and in the experiment with hLY6K-mFc were 0.472 nM and 0.0233 nM, respectively.

B4: anti-LY6K antibody 3518 (antibody, V domains shown)
VH: EVQLVESGGGLVQPGGSLKLSCAASGFTFSGSAMNWVRQASGKGLEWVGRIRSKANSYATAYAASLKGRFTISRDDSKNTAYLQMNSLKTEDTAVYYCTVTPFDYWGQGTLVTVSS
VL: DIQMTQSPSSLSASVGDRVTITCQASQDISNHLNWYQQKPGKAPKLLINDASNLETGVPSRFSGSGSGTDFTFTISSLQPEDIATYYCQQYDNVPYTFGQGTKLEIK
As to B4, the “% of maximum … on human LY6K” value came to 2.1% in the experiment with human LY6E (R&D Systems) [1], 2.1% with rat LY6K (R&D Systems) and 2.7% in [2].

B5: anti-LY6K antibody 3055 (antibody, V domains shown)
VH: EVQLVESGGGLVQPGRSLRLSCAASGFTFDDFAMHWVRQAPGKGLEWVSGISWNTGTIGYADSVKGRFTISRDNAKNSLYLQMNSLRAEDTALYYCAKDKGTTGFDYWGQGTLVTVSS
VL: DIQMTQSPSSVSASVGDRVTITCRASQGISRWLVWYQQKPGKAPKLLIYAASSLQSGVPSRFSGSGSGTDFTLTISSLQPEDFATYYCQQANSFPRTFGQGTRLEIK
Take B5: the “% of maximum … on human LY6K” value with rat LY6K (R&D Systems) turned out to be 0.4%; with Human LY6K (R&D Systems), 22.6%; in [2], 40.3%.

B6: anti-LY6K antibody 3553 (antibody, V domains shown)
VH: QVQLVQSGAEVKKPGASVKVSCKASGYTFTGYYMHWVRQAPGTGLDWMGWISPNSGGTNYAQKFQGRVTMTRDTSISTVYMELSRLRSDDTALYYCAREVGNYWGQGTLVTVSS
VL: DIQMTQSPTSLSTSVGDRVTITCQASQDIYNYLNWYQLKPGKAPKLLIYDASNLERGVTSRFSGSGSGTDFTFTISSLQPEDIATYYCQQYDSLPITFGQGTRLEIK
As to B6, the “% of maximum … on human LY6K” value came to 5% with human LY6E (R&D Systems) [1], 2.4% with rat LY6K (R&D Systems), 26% in the experiment with Human LY6K (R&D Systems) and 28.9% in experiment [2].

B7: anti-LY6K antibody 3102 (antibody, V domains shown)
VH: QVQLVQSGAEVKKPGASVKVSCKASGYTFTGYYIHWMRQAPGQGLEWMGWINPNSGGTNYAQNFQGRVTMTRDTSINTAYMELSRLKSDDTAVYYCAKESGSPWGQGTLVTVSS
VL: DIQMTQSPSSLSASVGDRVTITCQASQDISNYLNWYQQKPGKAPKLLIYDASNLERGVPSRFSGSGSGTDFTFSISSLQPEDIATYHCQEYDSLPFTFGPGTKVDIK
As for B7, the “% of maximum … on human LY6K” value came out at 3.8% with human LY6E (R&D Systems) [1], 0.2% in the experiment with rat LY6K (R&D Systems), 38.4% in the experiment with Human LY6K (R&D Systems) and 40.1% in experiment [2].

B8: anti-LY6K antibody 3728 (antibody, V domains shown)
VH: EVQLVESGGGLVKPGGSLRLSCAASGFTFSDVWMSWVRQAPGKGLEWVGRIKSKTDGGRIDYAAPVKGRFTISRDDSKNTLYLQMNSLKTEDTAVYYCTTVPYSDYWGQGTLVTVSS
VL: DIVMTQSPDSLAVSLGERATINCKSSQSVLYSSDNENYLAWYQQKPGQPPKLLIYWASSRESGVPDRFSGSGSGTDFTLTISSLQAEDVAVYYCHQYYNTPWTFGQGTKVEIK
Regarding B8, the Kd – broadly, the concentration at which binding is half-saturated – in the experiment with hLY6K-his was determined as 4.96 nM; in the experiment with cyLY6K-mFc it was 0.0786 nM; with hLY6K-mFc it was 0.00734 nM. For the same molecule, the “% of maximum … on human LY6K” value with human LY6E (R&D Systems) [1] is 1%; with rat LY6K (R&D Systems), -1.3%; in the experiment with Human LY6K (R&D Systems) it was 96.4%; in [2], 110%.

B9: anti-LY6K antibody 3514 (antibody, V domains shown)
VH: QVQLVQSGAEVKKPGASVKVSCKASGYTFTSYGISWVRQATGQGLEWMGWMNPNSGNTGYAQKFQGRVTMTRNTSISTAYMELSSLRSEDTAVYYCRAAGYYYYYYYMDVWGKGTTVTVSS
VL: not shown
Regarding B9, the entries for the “% of maximum … on human LY6K” value (in the experiment with human LY6E (R&D Systems) [1]; with rat LY6K (R&D Systems); in experiment [2]) were 2.9%, 0% and 2.6%, respectively.

B10: anti-LY6K antibody 2659 (antibody, V domains shown)
VH: EVQLVESGGGLVQPGRSLRLSCAASGFTFDDYAMHWVRQAPGKGLEWVSGISWKSGIIGYADSVKGRFTISRDNAKNSLYLQMNSLRAEDTALYYCAKDSRTGLDYWGQGTLVTVSS
VL: not shown
notes: as for B3
In the case of B10, the Kd with hLY6K-his is 6.13 nM; with hLY6K-mFc it was 0.034 nM.

B11: anti-LY6K antibody 3719 (antibody, V domains shown)
VH: EVQLVESGGGLVQPGRSLRLSCTASGFTFNDYAMHWVRQAPGKGLEWVSGISWNSNNIDYADSVKGRFTISRDNAKNSLYMQMNSLRAEDTALYYCAKDGPGTTNDAFDIWGQGTMVTVSS
VL: DIQMTQSPSSLSASVGDRVTITCRASHSISSYLNWYQQKPGKAPKLLIYAASSLQSGVPSRFSGSGSGTDFTLTISSLQPEDFATYYCHQGYSTPLTFGGGTKVEIK
On to B11, for which the binding result in the experiment with human LY6E (R&D Systems) [3], with Ly6H and with Ly6D was “no binding (tested: 10 µg/ml)” in each case. Further, the “% of maximum … on human LY6K” value is 4.2% in the experiment with human LY6E (R&D Systems) [1], -1.7% with rat LY6K (R&D Systems) and 0.8% in experiment [2].

B12: anti-LY6K antibody 3527 (antibody, V domains shown)
VH: EVQLVESGGGLVKPGGSLRLSCAASGFTFSSYSMNWVRQAPGKGLEWVSSISSTSSYIYYADSVKGRFTISRDNAKNSLYLQMNSLRAEDTAVYYCARSDYYDSGSYKNYYYYYMDVWGKGTTVTVSS
VL: DIQMTQSPSSLSASVGDRVTITCRTSQSISSYLNWFQQKPGKAPKVLIYAASSLQRGVPSRFSGSGSGTDFTLTISSLQPEDFATYYCQQSYSTPLTFGGGTKVEIK
In the case of B12, the “% of maximum … on human LY6K” value is 4.6% with human LY6E (R&D Systems) [1], 1.1% in the experiment with rat LY6K (R&D Systems), 54.6% with Human LY6K (R&D Systems) and 58% in [2].

B13: anti-LY6K antibody 3501 (antibody, V domains shown)
VH: EVQLVESGGGLVQPGRSLRLSCAASGFTFDDYAMHWVRQAPGKGLEWVSGISWNSGTIDYADSVKGRFTISRDNAKNSLYLQVNSLRAEDTALYYCAKDSPQKDYYYMDVWGKGTTVTVSS
VL: DIQMTQSPSSLSASVGDRVTITCRTSQSISSYLNWYQQKPGKAPNLLIYAASSLQSGVPSRFSGSGSGTDFTLTISSLQPEDFATYYCQQSYITPITFGQGTRLEIK
Consider B13, for which the binding result in the experiment with human LY6E (R&D Systems) [3], in the experiment with Ly6H and with Ly6D was “no binding (tested: 10 µg/ml)” each time. For the same molecule, the “% of maximum … on human LY6K” value amounted to 4.3% in the experiment with human LY6E (R&D Systems) [1], 0.4% with rat LY6K (R&D Systems) and 2% in experiment [2].
